Molecular target: T1, GST-αβ fusion protein (human, UniProt P52655 1-376)
T1 construct: Bacterially expressed and fixed to glutathione sepharose beads; not shown: glutathione-S-transferase (GST), fusion partner
T1 sequence (looked up): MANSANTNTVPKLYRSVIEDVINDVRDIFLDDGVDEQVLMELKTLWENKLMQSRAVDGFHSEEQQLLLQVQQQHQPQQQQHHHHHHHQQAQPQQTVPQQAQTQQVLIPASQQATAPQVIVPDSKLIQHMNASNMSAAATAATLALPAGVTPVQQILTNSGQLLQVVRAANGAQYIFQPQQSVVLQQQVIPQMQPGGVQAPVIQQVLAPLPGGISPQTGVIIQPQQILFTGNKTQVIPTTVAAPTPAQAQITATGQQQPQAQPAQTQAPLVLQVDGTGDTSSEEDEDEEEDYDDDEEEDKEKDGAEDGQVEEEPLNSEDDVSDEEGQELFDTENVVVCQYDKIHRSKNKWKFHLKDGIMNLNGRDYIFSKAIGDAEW
Test: GST pull-down, 35S-labelled protein on glutathione sepharose beads, autoradiography
Description: Bacterial extracts of GST or GST fusion proteins were incubated with glutathione sepharose-4B beads (6-9 μg of GST-fusion protein/20 μl of beads) with shaking at […]. After 2 hours the beads were washed with 50 column volumes of cold buffer A (20 mM NaH₂PO₄ (pH 7.0) 150 mM NaCl, 1 mM DTT, 1 mM PMSF). Washed beads (20 μl) were then incubated with reticulocyte lysates containing 2×10⁴ cpm of ³⁵S labelled protein in 300 μl of protein binding buffer (PBB) for 1 hour at room temperature. PBB contained 20 mM Hepes (pH 7.9), 20% glycerol, 0.5 mM EDTA, 60 mM KCl, 5 mM MgCl2, 0.1% NP40, and 5 mM β-mercaptoethanol. The beads were subsequently washed 4 times in PBB and labeled proteins were eluted with 1M KCl. Samples were analyzed on 15% SDS polyacrylamide gels, enhanced with NaSalycilate, and visualized by autoradiography.

binding result: no binding
B1: 35S-labelled TFIIA αβ (large subunit of human TFIIA) (other, UniProt P52655 1-376, looked up)
chain: T1 sequence (looked up)
modifications: 35S label
notes: Made in reticulocyte lysate as 35S-labelled protein; also called αβ subunit; radiolabelled αβ
